# Test results reported in paper PMC10097602, “Ubiquitin-like conjugation by bacterial cGAS enhances anti-phage defence” (Nature, 2023).
# Changes are numbered by the printed parent chain. In names and notes the source's numbering stands.
# T1: Vs.4 (Tequatrovirus T4, UniProt P13314)
# T1 construct: gene acb2; residues 1-88, full length; SUMO fusion with His6, tag cleaved by ULP1; E. coli BL21(DE3)pLysS
# T1 sequence (P13314 1-88): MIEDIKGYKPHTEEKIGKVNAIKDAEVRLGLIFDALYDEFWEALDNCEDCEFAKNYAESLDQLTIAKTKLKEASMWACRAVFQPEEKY
# B1: Vs.4 from phage T4 (residues 1-88) (natural protein, UniProt P13314 1-88, looked up)
# chain: T1 sequence (P13314 1-88)
# notes: Vs.4, protein of unknown function of bacteriophage T4, residues 1-88; T4 proteome UniProt UP000009087; Hexamer by crystal structure and analytical ultracentrifugation; also called Vs.4 (WT); wild-type Vs.4; source: E. coli BL21(DE3)pLysS, purified (Ni-NTA, SUMO tag cleaved with ULP1, size-exclusion chromatography)
# B2: Vs.4 F33A (natural protein, phage T4, UniProt P13314 1-88, looked up)
# chain: T1 sequence (P13314 1-88) with F33A
# notes: Vs.4 of bacteriophage T4, residues 1-88, with F33A; source: E. coli BL21(DE3)pLysS, purified (Ni-NTA, SUMO tag cleaved with ULP1, size-exclusion chromatography)
# Assays:
# Vs.4 = target: T1, Vs.4; assay: isothermal titration calorimetry (VP-ITC), global fit of three titrations; type: binding
# cGAMP = assay: ITC; conditions: for Kd: parent: 31.4 nM; for other: ΔH: parent: -24.9 kcal/mol; for other: ΔS: parent: -50.6
# [1] = target: the molecule itself; assay: crystal structure; Vs.4 with 3'3'-cGAMP (1.2:1 molar ratio), hanging drops, 7% PEG8000, 0.1 M imidazole pH 6.3, 0.2 mM calcium acetate, room temperature; quaternary structure confirmed with PISA
# [2] = target: the molecule itself; assay: AUC; sedimentation velocity, 15 µM of each protein in 20 mM Tris and 150 mM NaCl; hexamer
# [3] = high incompetent fraction (0.496)
Molecule,Kd (cGAMP) [nM],other: ΔH (cGAMP) [kcal/mol],other: ΔS (cGAMP) [cal/mol·K],other results
Nc1nc2c(ncn2[C@@H]2O[C@@H]3COP(=O)(O)O[C@H]4[C@@H](O)[C@H](n5cnc6c(N)ncnc65)O[C@@H]4COP(=O)(O)O[C@H]3[C@H]2O)c(=O)[nH]1 [3′3′-cGAMP],,,,Kd (Vs.4): 31.4 nM
Vs.4 from phage T4 (residues 1-88) (from UniProt P13314) A77Y,1100,-5,10.3,
Vs.4 from phage T4 (residues 1-88) (from UniProt P13314) F33A,,,,Kd (cGAMP; [3]): 25.3 nM; other: ΔH (cGAMP; [3]): -24.3 kcal/mol; other: ΔS (cGAMP; [3]): -48.8 cal/mol·K
Vs.4 from phage T4 (residues 1-88) (from UniProt P13314) F82A,859,-23.3,-51.6,
Vs.4 from phage T4 (residues 1-88) (from UniProt P13314) Y8A,158,-10.6,-5,
B1,,,,stoichiometry N [1]: 6
B2,,,,binding result [2]: binds
